Reference: patent US20210380663A1 (ACCELERON PHARMA, published 2021)
Read-outs that look alike come from different tables or passages of the source.

Columns and labels:
[1] = target: T1, activin A (UniProt P08476 311-426)
T1 sequence (looked up): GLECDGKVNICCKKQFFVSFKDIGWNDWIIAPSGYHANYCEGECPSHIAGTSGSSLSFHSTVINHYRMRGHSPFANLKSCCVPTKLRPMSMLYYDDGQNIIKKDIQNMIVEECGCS

[2] = target: GDF8 (UniProt O14793)
[3] = target: T2, TGFβ2 (human) (UniProt P61812)
T2 sequence (looked up): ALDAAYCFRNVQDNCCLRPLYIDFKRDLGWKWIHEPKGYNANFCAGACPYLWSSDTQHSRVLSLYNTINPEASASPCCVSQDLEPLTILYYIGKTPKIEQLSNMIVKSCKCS

[4] = target: T3, GDF11 (UniProt O95390 299-407)
T3 sequence (O95390 299-407 limits assumed): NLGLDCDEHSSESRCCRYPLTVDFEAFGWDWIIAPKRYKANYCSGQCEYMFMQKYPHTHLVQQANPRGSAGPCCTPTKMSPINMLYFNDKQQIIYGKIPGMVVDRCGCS

[5] = target: T4, BMP9 (UniProt Q9UK05)
T4 sequence (looked up): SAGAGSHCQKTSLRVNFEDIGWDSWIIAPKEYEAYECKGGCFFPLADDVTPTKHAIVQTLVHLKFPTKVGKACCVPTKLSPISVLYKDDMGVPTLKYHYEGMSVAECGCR

[6] = target: T5, activin B (UniProt P09529)
T5 sequence (looked up): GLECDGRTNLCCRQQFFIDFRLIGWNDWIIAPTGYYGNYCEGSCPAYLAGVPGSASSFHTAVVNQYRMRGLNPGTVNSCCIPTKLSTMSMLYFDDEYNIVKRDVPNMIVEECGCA

[7] = target: T6, BMP10 (UniProt O95393)
T6 sequence (looked up): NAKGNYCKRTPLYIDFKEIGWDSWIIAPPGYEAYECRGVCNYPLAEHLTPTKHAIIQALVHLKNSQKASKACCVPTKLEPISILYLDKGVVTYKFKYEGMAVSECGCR

[8] = target: T7, TGFβ1 (human, UniProt P01137 279-390)
T7 sequence (P01137 279-390 limits assumed): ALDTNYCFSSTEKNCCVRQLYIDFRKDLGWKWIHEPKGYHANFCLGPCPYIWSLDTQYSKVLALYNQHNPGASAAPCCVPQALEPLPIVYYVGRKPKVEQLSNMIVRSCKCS

[9] = target: T8, TGFβ3 (human, UniProt P10600 301-412)
T8 sequence (looked up): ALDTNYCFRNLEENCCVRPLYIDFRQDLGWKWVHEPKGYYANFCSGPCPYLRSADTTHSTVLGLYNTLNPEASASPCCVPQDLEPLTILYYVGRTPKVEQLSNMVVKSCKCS

[10] = target: T7, TGFβ1; remark: listed apart in the source
[11] = target: T8, TGFβ3; remark: listed apart in the source
[12] = target: T8, TGFβ3; assay: cell-based or functional assay
[13] = target: T7, TGFβ1; assay: cell-based or functional assay
[14] = target: T1, activin A; assay: cell-based or functional assay
[15] = target: T3, GDF11; assay: cell-based or functional assay
[16] = target: T8, TGFβ3; assay: cell-based or functional assay; remark: listed apart in the source
[17] = target: T7, TGFβ1; assay: cell-based or functional assay; remark: listed apart in the source

TβRII-Fc homodimer (Fc fusion), sequence (chain): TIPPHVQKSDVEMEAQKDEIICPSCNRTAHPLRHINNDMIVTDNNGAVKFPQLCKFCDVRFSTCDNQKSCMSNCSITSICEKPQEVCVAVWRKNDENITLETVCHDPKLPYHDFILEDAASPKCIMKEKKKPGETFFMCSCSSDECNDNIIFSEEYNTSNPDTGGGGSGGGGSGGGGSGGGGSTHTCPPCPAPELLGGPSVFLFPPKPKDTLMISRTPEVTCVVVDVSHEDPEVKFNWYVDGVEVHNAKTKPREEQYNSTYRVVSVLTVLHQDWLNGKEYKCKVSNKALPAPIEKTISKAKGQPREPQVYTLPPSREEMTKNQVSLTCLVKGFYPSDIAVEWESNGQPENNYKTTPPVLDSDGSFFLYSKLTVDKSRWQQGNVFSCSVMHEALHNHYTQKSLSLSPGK

Molecule	IC50; inhibition of activin A signalling, CAGA12 reporter gene assay [1]	IC50; inhibition of GDF8 signalling, CAGA12 reporter gene assay [2]	IC50; inhibition of TGFβ2 signalling, CAGA12 reporter gene assay [3]	IC50; inhibition of GDF11 signalling, CAGA12 reporter gene assay [4]	IC50; inhibition of BMP9 signalling, CAGA12 reporter gene assay [5]	IC50; inhibition of activin B signalling, CAGA12 reporter gene assay [6]	IC50; inhibition of BMP10 signalling, CAGA12 reporter gene assay [7]	IC50; inhibition of TGFβ1 signalling, CAGA12 reporter gene assay [8]	IC50; inhibition of activin A signalling, CAGA12 reporter gene assay in A204 cells [14]	IC50; inhibition of GDF11 signalling, CAGA12 reporter gene assay in A204 cells [15]	also measured
TβRII-Fc homodimer (Fc fusion)	> 20 µg/mL	> 20 µg/mL	> 20 µg/mL	> 20 µg/mL	> 20 µg/mL	> 20 µg/mL	> 20 µg/mL	0.017 nM			
TGFBRII-(G4S)4-hFc dimer (Fc fusion)											IC50; inhibition of TGFβ3 signalling, CAGA12 reporter gene assay in A549 cells [9]: 0.106 nM; IC50; inhibition of TGFβ1 signalling, CAGA12 reporter gene assay in A549 cells [10]: 0.143 nM
ActRIIB-Fc:TβRII-Fc heterodimer (Fc fusion, not shown: a dimerising Fc or GST) chain 1: GRGEAETRECIYYNANWELERTNQSGLERCEGEQDKRLHCYASWRNSSGTIELVKKGCWLDDFNCYDRQECVATEENPQVYFCCCEGNFCNERFTHLPEAGGPEVTYEPPPTAPTGGGGSGGGGSGGGGSGGGGS chain 2: TIPPHVQKSDVEMEAQKDEIICPSCNRTAHPLRHINNDMIVTDNNGAVKFPQLCKFCDVRFSTCDNQKSCMSNCSITSICEKPQEVCVAVWRKNDENITLETVCHDPKLPYHDFILEDAASPKCIMKEKKKPGETFFMCSCSSDECNDNIIFSEEYNTSNPDTGGGGSGGGGSGGGGSGGGGS	0.85 nM	8.16 nM	> 20 µg/mL	1.73 nM	> 20 µg/mL	0.64 nM	1.76 nM	0.348 nM			IC50; inhibition of TGFβ3 signalling, CAGA12 reporter gene assay [11]: 0.31 nM
Fc1-(G4S)4G-TGFBRII, homodimer (Fc fusion) GASNTKVDKRVTGGGTHTCPPCPAPELLGGPSVFLFPPKPKDTLMISRTPEVTCVVVDVSHEDPEVKFNWYVDGVEVHNAKTKPREEQYNSTYRVVSVLTVLHQDWLNGKEYKCKVSNKALPAPIEKTISKAKGQPREPQVCTLPPSREEMTKNQVSLSCAVKGFYPSDIAVEWESNGQPENNYKTTPPVLDSDGSFFLVSKLTVDKSRWQQGNVFSCSVMHEALHNHYTQKSLSLSPGAGGGGSGGGGSGGGGSGGGGSGTIPPHVQKSDVEMEAQKDEIICPSCNRTAHPLRHINNDMIVTDNNGAVKFPQLCKFCDVRFSTCDNQKSCMSNCSITSICEKPQEVCVAVWRKNDENITLETVCHDPKLPYHDFILEDAASPKCIMKEKKKPGETFFMCSCSSDECNDNIIFSEEYNTSNPD											CAGA12 reporter gene assay in A549 cells, inhibition relative to the TGFBRII-(G4S)4-hFc homodimer [12]: ~7 fold; CAGA12 reporter gene assay in A549 cells, inhibition relative to the TGFBRII-(G4S)4-hFc homodimer [13]: ~7 fold
ActRIIB-Fc-(G4S)4G-TGFBRII + Fc1-(G4S)4G-TGFBRII (3-arm) (Fc fusion) ActRIIB-Fc(knob)-(G4S)4G-TGFBRII chain: GASGRGEAETRECIYYNANWELERTNQSGLERCEGEQDKRLHCYASWRNSSGTIELVKKGCWLDDFNCYDRQECVATEENPQVYFCCCEGNFCNERFTHLPEAGGPEVTYEPPPTAPTGGGTHTCPPCPAPELLGGPSVFLFPPKPKDTLMISRTPEVTCVVVDVSHEDPEVKFNWYVDGVEVHNAKTKPREEQYNSTYRVVSVLTVLHQDWLNGKEYKCKVSNKALPAPIEKTISKAKGQPREPQVYTLPPCREEMTKNQVSLWCLVKGFYPSDIAVEWESNGQPENNYKTTPPVLDSDGSFFLYSKLTVDKSRWQQGNVFSCSVMHEALHNHYTQKSLSLSPGAGGGGSGGGGSGGGGSGGGGSGTIPPHVQKSDVEMEAQKDEIICPSCNRTAHPLRHINNDMIVTDNNGAVKFPQLCKFCDVRFSTCDNQKSCMSNCSITSICEKPQEVCVAVWRKNDENITLETVCHDPKLPYHDFILEDAASPKCIMKEKKKPGETFFMCSCSSDECNDNIIFSEEYNTSNPD Fc1(hole)-(G4S)4G-TGFBRII chain: GASNTKVDKRVTGGGTHTCPPCPAPELLGGPSVFLFPPKPKDTLMISRTPEVTCVVVDVSHEDPEVKFNWYVDGVEVHNAKTKPREEQYNSTYRVVSVLTVLHQDWLNGKEYKCKVSNKALPAPIEKTISKAKGQPREPQVCTLPPSREEMTKNQVSLSCAVKGFYPSDIAVEWESNGQPENNYKTTPPVLDSDGSFFLVSKLTVDKSRWQQGNVFSCSVMHEALHNHYTQKSLSLSPGAGGGGSGGGGSGGGGSGGGGSGTIPPHVQKSDVEMEAQKDEIICPSCNRTAHPLRHINNDMIVTDNNGAVKFPQLCKFCDVRFSTCDNQKSCMSNCSITSICEKPQEVCVAVWRKNDENITLETVCHDPKLPYHDFILEDAASPKCIMKEKKKPGETFFMCSCSSDECNDNIIFSEEYNTSNPD									2.96 nM	4.4 nM	IC50; inhibition of TGFβ3 signalling, CAGA12 reporter gene assay in A549 cells [16]: 0.016 nM; IC50; inhibition of TGFβ1 signalling, CAGA12 reporter gene assay in A549 cells [17]: 0.0201 nM
ActRIIB-Fc homodimer (Fc fusion) ActRIIB-Fc chain: GRGEAETRECIYYNANWELERTNQSGLERCEGEQDKRLHCYASWRNSSGTIELVKKGCWLDDFNCYDRQECVATEENPQVYFCCCEGNFCNERFTHLPEAGGPEVTYEPPPTAPTGGGTHTCPPCPAPELLGGPSVFLFPPKPKDTLMISRTPEVTCVVVDVSHEDPEVKFNWYVDGVEVHNAKTKPREEQYNSTYRVVSVLTVLHQDWLNGKEYKCKVSNKALPVPIEKTISKAKGQPREPQVYTLPPSREEMTKNQVSLTCLVKGFYPSDIAVEWESNGQPENNYKTTPPVLDSDGSFFLYSKLTVDKSRWQQGNVFSCSVMHEALHNHYTQKSLSLSPGK	0.05 nM	0.83 nM	> 20 µg/mL	0.09 nM	2 nM	0.07 nM	0.556 nM	> 20 µg/mL	0.079 nM	0.135 nM	IC50; inhibition of TGFβ3 signalling, CAGA12 reporter gene assay [11]: > 20 µg/mL
ActRIIB-Fc Single-Arm (Fc fusion) ActRIIB-Fc chain: GRGEAETRECIYYNANWELERTNQSGLERCEGEQDKRLHCYASWRNSSGTIELVKKGCWLDDFNCYDRQECVATEENPQVYFCCCEGNFCNERFTHLPEAGGPEVTYEPPPTAPTGGGTHTCPPCPAPELLGGPSVFLFPPKPKDTLMISRTPEVTCVVVDVSHEDPEVKFNWYVDGVEVHNAKTKPREEQYNSTYRVVSVLTVLHQDWLNGKEYKCKVSNKALPAPIEKTISKAKGQPREPQVYTLPPSRKEMTKNQVSLTCLVKGFYPSDIAVEWESNGQPENNYKTTPPVLKSDGSFFLYSKLTVDKSRWQQGNVFSCSVMHEALHNHYTQKSLSLSPGK Fc chain without receptor domain: SNTKVDKRVTGGGTHTCPPCPAPELLGGPSVFLFPPKPKDTLMISRTPEVTCVVVDVSHEDPEVKFNWYVDGVEVHNAKTKPREEQYNSTYRVVSVLTVLHQDWLNGKEYKCKVSNKALPAPIEKTISKAKGQPREPQVYTLPPSREEMTKNQVSLTCLVKGFYPSDIAVEWESNGQPENNYDTTPPVLDSDGSFFLYSDLTVDKSRWQQGNVFSCSVMHEALHNHYTQKSLSLSPGK									1.41 nM	2.61 nM	
